Experimental data as given in US20110250670A1, “LIGHT ENERGY-INDUCED STABILITY OF BIOMATERIALS” (University of Calcutta, priority 2010, published 2011).

Tests used:
Type in all cases: physicochemical
[1] = Dithiothreitol induced aggregation of insulin (absorption at 360 nm); conditions: 0.1 mg/ml, DTT 20 mM, 40° C., He-Ne laser 632.8 nm, 0.63 watts/cm^2
Source text: (§1) In this Example, the effects of light energy on the aggregation of a labile biomolecule in aqueous solution were examined. The device included a heating element and a laser, as depicted in FIG. 2. The laser operated at 632.8 nm, in the red portion of the spectrum, with a power density of 0.63 watts/cm^2. The 180 degree scattering at 360 nm (in terms of OD at 360 nm) was taken to measure the extent of aggregation because it is well-known that this scattering is a measure of the propensity of a protein to form aggregate. Aggregation of proteins of the reference samples was taken as 100% and the aggregation of laser-treated proteins in the test samples was calculated relative to the 100% aggregation of the reference samples.
Dithiothreitol induced aggregation of insulin. Insulin was purchased from ICN and a stock solution of insulin (0.5 mg/ml) was prepared by mixing with 100 mM phosphate buffer of pH 7.2. Disulphide linkages of insulin (0.1 mg/ml) were reduced by dithiothreitol (DTT, 20 mM), which leads aggregation of insulin at 40° C. This aggregation of protein was measured by absorption at 360 nm after heat treatment at 40° C. in a Perkin Elmer spectrophotometer. Aggregation of insulin was measured in the presence and in the absence of laser light. Test samples were irradiated with a He—Ne laser having power density is 0.63 watts/cm^2 and operating at a wavelength 632.8 nm. […]

[2] = Dynamic light scattering of hemoglobin; conditions: heated at 60° C. for 20 min without red laser light
Description: FIG. 4 represents the dynamic light scattering pattern of protein hemoglobin in the presence and absence of red laser light at 60° C. The hydrodynamic diameter of hemoglobin at 25° C. is 5.6 nm. When this protein solution was heated at 60° C. without red laser light for 20 min, the hydrodynamic diameter increases to 4801.0 nm. However, in the presence of red laser light the diameter increases to only 255.0 nm.

[3] = Thermal aggregation of hemoglobin (absorption/scattering at 360 nm); conditions: 0.1 mg/ml, 60° C., 20 min, He-Ne laser 632.8 nm, 0.63 watts/cm^2
Source text: as §1
Thermal aggregation of hemoglobin. Hemoglobin was purchased from Sigma-Aldrich (St. Louis, Mo.) and a 0.5 mg/ml stock solution was prepared by mixing with 100 mM phosphate buffer solution of pH 7.2. The aggregation of a 0.1 mg/ml hemoglobin solution was observed by measuring the absorption of radiation of 360 nm wavelength with a time duration of 20 min in a Perkin Elmer spectrophotometer at 60° C. Test samples were irradiated with He—Ne laser having power density is 0.63 watts/cm^2 and operating at a wavelength 632.8 nm. A control sample was subjected to identical conditions expect laser irradiation was not performed. […]

[4] = Thermal aggregation of citrate synthase (OD at 360 nm); conditions: for change in aggregation upon laser exposure: FIG. 5
Source text: as §1
Thermal Aggregation of Citrate Synthase. Citrate synthase was purchased from Sigma-Aldrich and a 0.5 mg/ml stock solution was prepared by mixing with 100 mM phosphate buffer solution of pH 7.2. Citrate synthase was readily converted to its aggregated state from a native state at 45° C. The aggregation profile of the protein (0.1 mg/ml) was measured by measuring optical density (OD) at 360 nm in a Perkin Elmer spectrophotometer in 100 mM phosphate buffer of pH 7.2. Test samples were irradiated with a He—Ne laser having power density is 0.63 Watt/cm^2 and operating at a wavelength 632.8 nm. A control sample was subjected to identical conditions expect that laser irradiation was not performed. The results are shown in FIG. 3 and indicate that irradiation with laser light reduced the formation of protein aggregates by about 40% compared to an non-irradiated control sample.
A comparative study showing the effect of the power of the red laser on the aggregation of citrate synthase was conducted. Thermal aggregation of citrate synthase was determined by measuring absorption of radiation of 360 nm wavelength at 45° C. Aggregation of control samples (in absence of laser treatment) was considered as 100% aggregation while aggregation of the treated protein of the test samples was calculated relative to the 100% aggregation of the control samples. […] Thus, increasing the energy input to the test samples beyond that needed to increase the activation energy for unfolding the protein appears to generate heat energy that increases aggregation. As such, suitable methods for preventing protein aggregation use a low-power red laser.

Molecule: insulin
- reduction of formation of insulin aggregates compared to non-irradiated control [1]: about 10%

Molecule: hemoglobin
- hydrodynamic diameter [2]: 4801.0 nm
- reduction of formation of hemoglobin aggregates compared to non-irradiated control [3]: about 25%

B1: citrate synthase (protein, UniProt P00889 28-464, looked up)
Citrate synthase, …: ASSTNLKDILADLIPKEQARIKTFRQQHGNTVVGQITVDMMYGGMRGMKGLVYETSVLDPDEGIRFRGYSIPECQKMLPKAKGGEEPLPEGLFWLLVTGQIPTEEQVSWLSKEWAKRAALPSHVVTMLDNFPTNLHPMSQLSAAITALNSESNFARAYAEGIHRTKYWELIYEDCMDLIAKLPCVAAKIYRNLYREGSSIGAIDSKLDWSHNFTNMLGYTDAQFTELMRLYLTIHSDHEGGNVSAHTSHLVGSALSDPYLSFAAAMNGLAGPLHGLANQEVLVWLTQLQKEVGKDVSDEKLRDYIWNTLNSGRVVPGYGHAVLRKTDPRYTCQREFALKHLPHDPMFKLVAQLYKIVPNVLLEQGKAKNPWPNVDAHSGVLLQYYGMTEMNYYTVLFGVSRALGVLAQLIWSRALGFPLERPKSMSTDGLIKLVDSK
notes: a beta sheet-rich enzyme which readily aggregates by thermal treatment at 45° C; purchased from Sigma-Aldrich
- reduction of formation of protein aggregates compared to non-irradiated control ([4]; 0.1 mg/ml, 45° C., He-Ne laser 632.8 nm, 0.63 Watt/cm^2): about 40%
- aggregation relative to control samples (100%) ([4]; 45° C., red laser 15 mW, 1.9 watts/cm^2): approximately 145%
- aggregation relative to control samples (100%) ([4]; 45° C., red laser 632.8 nm, 5 mW, 0.63 watts/cm^2): 60%
- change in aggregation upon laser exposure ([4]; high power (15 mW) red laser): increase in aggregation
- change in aggregation upon laser exposure ([4]; low power (5 mW) red laser): decrease in the aggregation
